According to the DeepSol protein solubility set:

assay: soluble on expression in E. coli; label from the status in PepcDB or PDB records

| Sequence | soluble on expression in E. coli |
| --- | --- |
| SNAMILSQQKYNYLAKVSDSNGVISALAFDQRGALKCLMAQYQMKEPTVAQMEELKVLVSEELTPYASSILLDPEYGLPAAQARDREAGLLLAYEKTGYDANTTSRLPDCLVDWSIKRLKEAGADAVKFLLYYDVDGDPQVNVQKQAYIERIGSECQAEDIPFFLEILTYDETISNNSSVEFAKVKVHKVNDAMKVFSAERFGIDVLKVEVPVNMVYVEGFAEGEVVYSKEEAAQAFREQEASTDLPYIYLSAGVSAELFQETLVFAHKAGAKFNGVLCGRATWAGSVQVYMEEGKEAARQWLRTSGLQNINELNKVLKTTASPWTEKVSVG | soluble |
| DITGIPSGFNDLDQKTSGFQPGDLIIVAGRPSMGKTAFALNIGEHVALETSKPVAVFSMEMGGVQLAMRMLGSIGRLDQHKMRTGQLNDDDWPRLTHALGKLNDAPIFIDESAGLNSLELRARARRLYRQHEGLGLIIIDYLQLMSATSPGSENRAAEISEISRSLKALAKELQVPVIALSQLNRGLEQRPNKRPIMSDL | not soluble |
| MHHHHHHSSGVDLGTENLYFQSMARLPKLAVFDLDYTLWPFWVDTHVDPPFHKSSDGTVRDRRGQDVRLYPEVPEVLKRLQSLGVPGAAASRTSEIEGANQLLELFDLFRYFVHREIYPGSKITHFERLQQKTGIPFSQMIFFDDERRNIVDVSKLGVTCIHIQNGMNLQTLSQGLETFAKAQTGPL | soluble |
| MIDMVVLTKEKIIEIIEEKTGMSREKIEEEIRRIMEEDPHLSEQGAAALLAERLGIDLIEREETSLMKISDLYPGMDPREVNIIGRVLKKYPVREYTKKDGSIGRVASLVIYDDSGRARVVLWDGKVAEYYNKIEVGDVIKVLDAQVRESLSGLPELHINFRARIILNPEDPRVDSIPPLEEVRIATYTRKKIGDIEPGDRFIEIRGTIAKVYRVLTYDACPECKKKVDYDPGTGVWICPEHGEVEPIKMTILDFGLDDGTGYIRVTLFGDDAEELLGVSSEEIAEKIKELENSGLTTKEAARKLAEEEFYKIIGKEIVVRGNVIEDRFLGLILRASSWEEVDYRKEIENIKEELEKLGVMLEHHHHHH | not soluble |
| GSHMPLSSENKQKLQKQVEFYFSDVNVQRDIFLKGKMAENAEGFVSLETLLTFKRVNSVTTDVKEVVEAIRPSEKLVLSEDGLMVRRRDPLP | soluble |
| MANKKNKVKFNICNVHYAPITVADEGKVSFGTPVAMPGAVSISMDPTGEPESFYADGIEYYVINNNQGYDGDLELAMIPETFRTDILKEEADSNNVLVENANSETGSFALLFEFDGDIRKIRHVLYNCSASRPTIESKTNEEDKEVQTETLTIKARPMADGYVKAKTGDSTTDTVYNNWYKSVYLPNSLEHHHHHH | soluble |
| MRAVIPYKKAGAKSRLSPVLSLQEREEFVELMLNQVISSLKGAGIEQVDILSPSVYGLEEMTEARVLLDEKDLNEALNRYLKEAEEPVLIVMADLPLLSPEHIKEISSTEKDVCIVPGKGGGTNALFIKNPSKYRVKYYGSSFLTHCSIATDSGQDFEIYDSFMAGTDIDEPEDLVELLIHGKGAAKDYIESKFRLEVKKGRVGLVPL | soluble |
| GSMTEIALIGNPNSGKTSLFNLITGHNQRVGNWPGVTVERKSGLVKKNKDLEIQDLPGIYSMSPYSPEEKVARDYLLSQRADSILNVVDATNLERNLYLTTQLIETGIPVTIALNMIDVLDGQGKKINVDKLSYHLGVPVVATSALKQTGVDQVVKKAAHTTTSTVGDLAFPIYDDRLEAAISQILEVLGNSVPQRSARFYAIKLFEQDSLVEAELDLSQFQRKEIEDIIRITEEIFTEDAESIVINERYAFIERVCQMAESHTEDFALTLS | soluble |
| MGSDKIHHHHHHMKVVAVGGGTGLSTLLKGLKNIDSFEITAVVSVTDEGGSSGKLRKELNVPPPGDVRNNIVALAKDEDLLAKLMSYRFSEGSFKGHSLGNLIIAALTKIEGSFSEAIRILERVLAIKGRVLPVSEDHARLVARFEDGEEVIGETNIVRKGGKIVEVRLDRPIDALPEVLEAIERADIIIFGPGSLYTSIITNVLVNGVKDAIKKSKAKKIYVCNLMTQPGETTGYRVSDHVKELERYLEQSVDFVLVNTRKPSEEVLERYRKEGSDFVEIDAENIQNTILAEPFLVEIVDPSDGQRKIRHDSVKLADVIERISRW | not soluble |
| MSLKVQGYANVVTLPNVTGRVIIVGDIHGCRAQLEDLLRAVSFKQGSDTLVAVGDLVNKGPDSFGVVRLLKRLGAYSVLGNHDAKLLKLVKKLGKKECLKGRDAKSSLAPLAQSIPTDVETYLSQLPHIIRIPAHNVMVAHAGLHPQRPVDRQYEDEVTTMRNLIEKEQEATGGVTLTATEETNDGGKPWASMWRGPETVVFGHDARRGLQEQYKPLAIGLDSRCVYGGRLSAAVFPGGCIISVPGWNGASAAAEGHHHHHH | soluble |
| MRNLLQKCFKWQWLVCLAVGCCFSSCKDDEESTSGYDPNKPIVLTDFYPPEGKLATQVILNGSNFGDSKENVKVFFNDKEASVISVKDDRMLVLAPKRASTIEDPECVVKVQVHEQIEEYKQTFDYYIQTTVTTLVGGSTSAQVNPTGTIPLSEAQFRANIDRCICVDQDKNVFFLVDNDGKFAAFMLNEEADKLISLKSDINALFNSPVLGYNSKDDIVYQFWANRDSHEVYYFDPKTDYAPTTAISSISWDDPNFPNIEGFGVWAAKCNFTMGPDGKMYSRMLGGNLVRIDVENARGENLTNGDLVGTKDGSAYGLVFDPQDENVFYFSNNDKHCIYKYDLRTKECACWAGQEGKSGYLDGPIGQAMFNKPGQMCVDSEGNIILTDTENHCIRKITMSTGYVSTLAGKPQNSGYVNGSAEDAQFKKPLGICIDNDDVMYIGDSENRAIRRLAVELEHHHHHH | soluble |
| KGNEFEDYCLKRELLMGIFEMGWEKPSPIQEESIPIALSGRDILARAKNGTGKSGAYLIPLLERLDLKKDNIQAMVIVPTRELALQVSQICIQVSKHMGGAKVMATTGGTNLRDDIMRLDDTVHVVIATPGRILDLIKKGVAKVDHVQMIVLDEADKLLSQDFVQIMEDIILTLPKNRQILLYSATFPLSVQKFMNSHLEKPYEIN | soluble |
| MGSDKIHHHHHHMVSRSPFESFQWKSDIFNCESTDIDNFYLLLEQEMTRLGMVEKNLGEVGKYKVSLYQSPAAKSGLPSLLISAGFHGEESAGPWGLLHFLSEASADLFERVNLSLLPLVNPTGFSRGHRFNKYGENPNRGFVFENGKPKANEHTSVEGKLLLDHAQLLIAACRDGILTCHEDVLSREAYVYSFEPSQVPGRFSLDLRDTLGGYFPIAVDGEIDACPVKDGLIFNHFDTSFEACLVRSGARVGACTETPALQNFDQRVLANSAAMTHFLALCAPLCD | not soluble |
| MGSDKIHHHHHHVLIKSIKLTNILSFGEAAETIELRPLNVVIGPNGSGKSNLIAAIELFRALPKDAPAFFRREGGIHDWLWKGGEIPPVATIESVFDEKGPLSGLRYALRFTVVGQHFEIIEERIEEEAAEGAQTPPPYHFKDGRGALRALLANEGEIKAWSFVIPSEIDPTQSILAQRKDPHQYPELTSLGAVLPTMRCYREWTMGPQSPPRQDQKTDLRNDYLDPYGAGNLALVLQRLGNKPALKKRFLEALRLLYEGIDDYGVTIEGGTSQIFFHEGGRFTIPASRLSDGTLRYLCLLAILLDPAPPPLLCIEEPELGLHPDILPTLADLLKEASERTQVIVTTHSDGLVDAMTDRPEAVLIAEKNENGTTLTRLDGETLKPWLAKYRLGELWTRGGIGGTRW | not soluble |
| MGSDKIHHHHHHMWYMRWEGVSDGLKVTAGSVIQRDDLVQYTTTDDATSSGGVLRVPIACSSAGAVGNADDGTALILVTPVNGLPSSGVADTLTGGFDTEELETWRARVIERYYWTPQGGADGDYVVWAKEVPGITRAWTYRHLMGTGTVGVMIASSDLINPIPEESTETAARQHIGPLAPVAGSDLYVFRPVAHTVDFHIRVTPDTPEIRAAITAELRSFLLRDGYPQGELKVSRISEAISGANGEYSHQLLAPVDNISIAKNELAVLGTISWT | not soluble |
